The chains are these.
B1: Phage-3600 (peptide)
peptide: WEVRCEPAWMCIGL
B2: Phage-3601 (peptide)
peptide: VMHRCEPSWMCWGF
B3: Phage-3603 (peptide)
peptide: EGLRCVPAWMCAGF
B4: Phage-3602 (peptide)
peptide: HEPVCKPSWMCTGL
B5: Phage-3649 (Peptide-180 library clone) (peptide)
peptide: LQTLCIPPWMCMGF
B6: Phage-3650 (Peptide-180 library clone) (peptide)
peptide: EQVLCRPAWMCLGF
B7: Phage-3652 (Peptide-180 library clone) (peptide)
peptide: PSAVCVPTWMCSGF
B8: Phage-3645 (Peptide-180 library clone) (peptide)
peptide: VDVRCMPLWMCSGF
B9: Phage-3648 (Peptide-180 library clone) (peptide)
peptide: PLVLCIPQWMCQAM
B10: Phage-3647 (Peptide-180 library clone) (peptide)
peptide: MVPVCIPLWMCSGF
B11: Phage-3646 (Peptide-180 library clone) (peptide)
peptide: TAVMCIPYWMCGGM
B12: Phage-3651 (Peptide-180 library clone) (peptide)
peptide: SVVMCVPEWMCQGF
B13: Phage-3642 (peptide)
peptide: VTMKCQPMWMCQGL
B14: Phage-3637 (peptide)
peptide: AEVKCIPTWMCTGF
B15: Phage-3643 (peptide)
peptide: ADRVCKPAWMCDLF
B16: Phage-3635 (peptide)
peptide: EVAMCKPLWMCSGF
B17: Phage-3641 (peptide)
peptide: SNMVCIPSWMCNGF
B18: Phage-3639 (peptide)
peptide: YPPLCVPMWMCNGF
B19: Phage-3634 (peptide)
peptide: GTTWCVPTWMCEGL
B20: Phage-3638 (peptide)
peptide: VHQLCIPVWMCSGF
B21: Phage-3633 (peptide)
peptide: SHALCRPAWMCMGL
B22: Phage-3631 (peptide)
peptide: LVNYCIPPWMCAGF
B23: Phage-3644 (peptide)
peptide: PNILCKPQWMCAGF
B24: Phage-3640 (peptide)
peptide: FPAMCKPSWMCTGF
B25: Phage-3636 (peptide)
peptide: VEPLCRPTWMCMSL
B26: Phage-3632 (peptide)
peptide: ELILCRPSWMCTGL
B27: Phage-3611, clonal phage showing a Peptide-180 library peptide (peptide)
peptide: VDRLCMPIWMCEGL
notes: Tested as crude clonal phage supernatant; not shown: pIII filament protein of the bacteriophage, fused to the peptide
B28: Phage-3604, clonal phage showing a Peptide-180 library peptide (peptide)
peptide: HVAMCQPTWMCMGF
modifications: cysteine pairing not given here; also: fused to pIII of bacteriophage, junction and order not given here
notes: as for B27
B29: Phage-3614, clonal phage showing a Peptide-180 library peptide (peptide)
peptide: GWEWCIPEWMCTGL
notes: as for B27
B30: Phage-3608, clonal phage showing a Peptide-180 library peptide (peptide)
peptide: ETVRCIPSWMCTGL
notes: as for B27
B31: Phage-3616, clonal phage showing a Peptide-180 library peptide (peptide)
peptide: ESRLCVPMWMCSGF
notes: as for B27
B32: Phage-3605, clonal phage showing a Peptide-180 library peptide (peptide)
peptide: WTFKCEPVWMCEGF
notes: as for B27
B33: Phage-3617, clonal phage showing a Peptide-180 library peptide (peptide)
peptide: DFIRCSPIWMCDGF
notes: as for B27
B34: Phage-3607, clonal phage showing a Peptide-180 library peptide (peptide)
peptide: LDIVCRPSWMCYGF
notes: as for B27
B35: Phage-3613, clonal phage showing a Peptide-180 library peptide (peptide)
peptide: ETMRCEPSWMCIGL
notes: as for B27
B36: Phage-3615, clonal phage showing a Peptide-180 library peptide (peptide)
peptide: LDRLCLPQWMCVGM
notes: as for B27
B37: Phage-3610, clonal phage showing a Peptide-180 library peptide (peptide)
peptide: VQPACVPIWMCDGL
notes: as for B27
B38: Phage-3612, clonal phage showing a Peptide-180 library peptide (peptide)
peptide: DPVMCMPRWMCDGF
notes: as for B27
B39: Phage-3606, clonal phage showing a Peptide-180 library peptide (peptide)
peptide: VVVSCTPSWMCTGL
notes: as for B27
B40: Phage-3609, clonal phage showing a Peptide-180 library peptide (peptide)
peptide: SHMVCKPTWMCQGF
notes: as for B27

Where no end group is shown, it is not given here.

We go through 40 molecules from patent US20260242478A1 (published 2026).

The first experiment concerns the target T1, PSMA Fab (biotinylated (site not stated)).
T1 construct: Biotinylated PSMA Fab captured on neutravidin coated plates in the phage ELISA; also called Anti-PSMA Fab; 006 PSMA Fab
The experiment in a line: clonal phage ELISA on captured PSMA Fab, competitor PSMA antigen pre-incubated.
B1: the “Phage binding ELISA signal, Anti-PSMA Fab with PSMA antigen” value turned out to be 0.0694.

On to B2, for which the “Phage binding ELISA signal, Anti-PSMA Fab with PSMA antigen” value is 0.118.

As to B3, the “Phage binding ELISA signal, Anti-PSMA Fab with PSMA antigen” value was found to be 0.0633.

As for B4, the “Phage binding ELISA signal, Anti-PSMA Fab with PSMA antigen” value was determined as 0.0595.

In the next experiment the target is T1, PSMA Fab. Nature of the experiment: clonal phage ELISA on biotinylated PSMA Fab captured on neutravidin, anti-M13 HRP detection.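 Also: crude clonal phage supernatants added to wells pretreated with PSMA antigen in blocking buffer or with blocking buffer only, then briefly incubated.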
Procedure: (§1) Clonal phage were harvested as crude supernatants and screened via standard ELISAs. […] Prior to the addition of clonal phage. wells were incubated with blocking buffer and PSMA antigen or blocking buffer alone. Without washing or aspirating, clonal phage supernatants were then added to the wells and incubated for a short time. Wells were then washed followed by detection of bound phage using a horse radish conjugated anti-M13 antibody.
With B1, the “Phage binding ELISA signal, Anti-PSMA Fab” value turned out to be 1.59.

For B2, the “Phage binding ELISA signal, Anti-PSMA Fab” value came to 1.58.

Consider B3, for which the “Phage binding ELISA signal, Anti-PSMA Fab” value stood at 1.58.

On to B4, for which the “Phage binding ELISA signal, Anti-PSMA Fab” value was found to be 1.58.

The target of another experiment is T2, PSMA Fab (006 PSMA Fab).
T2 construct: also called Anti-PSMA Fab; anti-PSMA Fab
The experiment in a line: clonal phage ELISA on captured PSMA Fab, wells pre-incubated with PSMA antigen as competitor.
Procedure: as §1
Take B5: the “phage binding ELISA signal on anti-PSMA Fab in presence of PSMA” value (shortened to “phage binding ELISA signal … of PSMA”) amounted to 0.0685.

As to B6, the “phage binding ELISA signal … of PSMA” value stood at 0.0974.

As for B7, the “phage binding ELISA signal … of PSMA” value came out at 0.0815.

Consider B8, for which the “phage binding ELISA signal … of PSMA” value came out at 0.0628.

As to B9, the “phage binding ELISA signal … of PSMA” value is 0.0663.

For B10, the “phage binding ELISA signal … of PSMA” value came out at 0.0744.

As to B11, the “phage binding ELISA signal … of PSMA” value is 0.104.

As for B12, the “phage binding ELISA signal … of PSMA” value came to 0.0734.

The next experiment deals with T3, PSMA Fab (SEQ ID NOs: 19, 20) (biotinylated (site not stated)).
T3 construct: In the phage ELISA the biotinylated PSMA Fab was captured on neutravidin coated plates; also called Anti-PSMA Fab; 006 PSMA Fab
Nature of the experiment: clonal phage ELISA on captured biotinylated PSMA Fab, anti-M13-HRP detection, no PSMA antigen.
For B13, the “phage binding ELISA signal” value is 1.52.

Take B14: the “phage binding ELISA signal” value came out at 1.53.

In the case of B15, the “phage binding ELISA signal” value came to 1.52.

Consider B16, for which the “phage binding ELISA signal” value is 1.53.

As for B17, the “phage binding ELISA signal” value came to 1.53.

For B18, the “phage binding ELISA signal” value came out at 1.53.

As to B19, the “phage binding ELISA signal” value was 1.54.

Regarding B20, the “phage binding ELISA signal” value was determined as 1.53.

With B21, the “phage binding ELISA signal” value is 1.54.

As to B22, the “phage binding ELISA signal” value was found to be 1.54.

B23: the “phage binding ELISA signal” value was 1.52.

As to B24, the “phage binding ELISA signal” value was determined as 1.53.

As to B25, the “phage binding ELISA signal” value was 1.53.

With B26, the “phage binding ELISA signal” value came out at 1.54.

The next experiment deals with T2, PSMA Fab (006 PSMA Fab). Nature of the experiment: clonal phage ELISA on biotinylated PSMA Fab captured on neutravidin, blocking buffer alone, anti-M13 HRP detection.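 Also: clonal phage were tested as crude supernatants, and the signal reflects phage still bound to the wells after washing.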
Procedure: as §1
With B5, the “phage binding ELISA signal on anti-PSMA Fab” value worked out at 1.5.

For the molecule B6, the “phage binding ELISA signal on anti-PSMA Fab” value was found to be 1.5.

Turning to B7, the “phage binding ELISA signal on anti-PSMA Fab” value worked out at 1.5.

With B8, the “phage binding ELISA signal on anti-PSMA Fab” value came to 1.52.

B9: the “phage binding ELISA signal on anti-PSMA Fab” value was 1.51.

For B10, the “phage binding ELISA signal on anti-PSMA Fab” value came to 1.51.

As for B11, the “phage binding ELISA signal on anti-PSMA Fab” value amounted to 1.52.

On to B12, for which the “phage binding ELISA signal on anti-PSMA Fab” value worked out at 1.5.

The target in a further experiment is T3, PSMA Fab (SEQ ID NOs: 19, 20). Nature of the experiment: clonal phage ELISA on captured biotinylated PSMA Fab, anti-M13-HRP detection, competitor: PSMA antigen pre-incubated.
Procedure: as §1
In the case of B13, the “phage binding ELISA signal” value was 0.0738.

As for B14, the “phage binding ELISA signal” value stood at 0.079.

On to B15, for which the “phage binding ELISA signal” value is 0.0527.

Consider B16, for which the “phage binding ELISA signal” value amounted to 0.069.

Regarding B17, the “phage binding ELISA signal” value was 0.0754.

As for B18, the “phage binding ELISA signal” value came to 0.107.

Regarding B19, the “phage binding ELISA signal” value amounted to 0.077.

For the molecule B20, the “phage binding ELISA signal” value was found to be 0.0996.

As for B21, the “phage binding ELISA signal” value was determined as 0.0783.

For the molecule B22, the “phage binding ELISA signal” value is 0.093.

On to B23, for which the “phage binding ELISA signal” value is 0.0825.

In the case of B24, the “phage binding ELISA signal” value was 0.082.

For B25, the “phage binding ELISA signal” value is 0.0766.

Regarding B26, the “phage binding ELISA signal” value was 0.0672.

The target in a further experiment is T4, PSMA Fab (006 PSMA Fab), biotinylated (biotinylated (site and chain not stated)).
T4 construct: also called Anti-PSMA Fab; anti-PSMA Fab
The experiment in a line: phage ELISA; biotinylated PSMA Fab on neutravidin plate, blocking buffer alone, bound phage detected with HRP anti-M13 antibody.
As for B27, the “Phage binding ELISA signal, Anti-PSMA Fab” value was determined as 1.58.

Regarding B28, the “Phage binding ELISA signal, Anti-PSMA Fab” value is 1.58.

Consider B29, for which the “Phage binding ELISA signal, Anti-PSMA Fab” value turned out to be 1.57.

On to B30, for which the “Phage binding ELISA signal, Anti-PSMA Fab” value worked out at 1.58.

Consider B31, for which the “Phage binding ELISA signal, Anti-PSMA Fab” value stood at 1.57.

Take B32: the “Phage binding ELISA signal, Anti-PSMA Fab” value was found to be 1.58.

In the case of B33, the “Phage binding ELISA signal, Anti-PSMA Fab” value came out at 1.57.

As to B34, the “Phage binding ELISA signal, Anti-PSMA Fab” value stood at 1.58.

Turning to B35, the “Phage binding ELISA signal, Anti-PSMA Fab” value was found to be 1.57.

As to B36, the “Phage binding ELISA signal, Anti-PSMA Fab” value was determined as 1.57.

Turning to B37, the “Phage binding ELISA signal, Anti-PSMA Fab” value is 1.58.

Regarding B38, the “Phage binding ELISA signal, Anti-PSMA Fab” value was 1.57.

Regarding B39, the “Phage binding ELISA signal, Anti-PSMA Fab” value is 1.58.

For B40, the “Phage binding ELISA signal, Anti-PSMA Fab” value is 1.58.

The target in the next experiment is T4, PSMA Fab (006 PSMA Fab), biotinylated. The experiment in a line: phage ELISA; biotinylated PSMA Fab on neutravidin plate, wells first incubated with PSMA antigen as competitor, HRP anti-M13 detection.
Procedure: as §1
With B27, the “Phage binding ELISA signal, Anti-PSMA Fab with PSMA antigen” value was determined as 0.0788.

For B28, the “Phage binding ELISA signal, Anti-PSMA Fab with PSMA antigen” value was 0.123.

In the case of B29, the “Phage binding ELISA signal, Anti-PSMA Fab with PSMA antigen” value amounted to 0.0625.

Take B30: the “Phage binding ELISA signal, Anti-PSMA Fab with PSMA antigen” value came out at 0.0717.

For the molecule B31, the “Phage binding ELISA signal, Anti-PSMA Fab with PSMA antigen” value was determined as 0.0707.

For the molecule B32, the “Phage binding ELISA signal, Anti-PSMA Fab with PSMA antigen” value amounted to 0.101.

Turning to B33, the “Phage binding ELISA signal, Anti-PSMA Fab with PSMA antigen” value was determined as 0.0807.

As for B34, the “Phage binding ELISA signal, Anti-PSMA Fab with PSMA antigen” value was 0.0774.

For the molecule B35, the “Phage binding ELISA signal, Anti-PSMA Fab with PSMA antigen” value came to 0.0724.

B36: the “Phage binding ELISA signal, Anti-PSMA Fab with PSMA antigen” value turned out to be 0.0704.

For the molecule B37, the “Phage binding ELISA signal, Anti-PSMA Fab with PSMA antigen” value worked out at 0.0782.

B38: the “Phage binding ELISA signal, Anti-PSMA Fab with PSMA antigen” value is 0.0916.

With B39, the “Phage binding ELISA signal, Anti-PSMA Fab with PSMA antigen” value was found to be 0.0718.

Regarding B40, the “Phage binding ELISA signal, Anti-PSMA Fab with PSMA antigen” value was 0.074.
